From WO2007039645A1

Biological target: VSG on Trypanosoma brucei brucei AnTat 1.1 parasites (Trypanosoma brucei brucei AnTat 1.1)
Assay: cell-based or functional assay
Conditions: scale: % of the parasites lysed at 10 μg/ml

Sequence of VSG on Trypanosoma brucei brucei AnTat 1.1 parasites (Trypanosoma brucei brucei AnTat 1.1) (P06015 30-480): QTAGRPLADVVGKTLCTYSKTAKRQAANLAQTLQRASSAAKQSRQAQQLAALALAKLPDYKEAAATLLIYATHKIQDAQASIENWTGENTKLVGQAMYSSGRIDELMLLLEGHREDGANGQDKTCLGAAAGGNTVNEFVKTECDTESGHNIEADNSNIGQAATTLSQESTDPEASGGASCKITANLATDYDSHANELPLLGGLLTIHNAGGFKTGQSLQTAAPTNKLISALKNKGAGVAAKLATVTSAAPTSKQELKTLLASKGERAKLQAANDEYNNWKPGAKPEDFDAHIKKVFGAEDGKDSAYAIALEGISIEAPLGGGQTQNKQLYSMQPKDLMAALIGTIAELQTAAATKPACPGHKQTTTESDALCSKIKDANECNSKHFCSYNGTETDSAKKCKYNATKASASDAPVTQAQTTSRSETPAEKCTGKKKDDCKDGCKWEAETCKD

Substance: NbAn33-Tr-apoL-I (from UniProt O14791 28-342)
- trypanolytic activity: 100
